Assay results: patent publication US6897044 (Biogen, dated 2005)

B1: C2B8, mouse/human chimeric monoclonal antibody specific for CD20 (150 kDa IgG monomer) (antibody, V domains shown)
VH: QVQLQQPGAELVKPGASVKMSCKASGYTFTSYNMHWVKQTPGRGLEWIGAIYPGNGDTSYNQKFKGKATLTADKSSSTAYMQLSSLTSEDSAVYYCARSTYYGGDWYFNVWGAGTTVTVSA
VL: QIVLSQSPAILSASPGEKVTMTCRASSSVSYIHWFQQKPGSSPKRWIYATSNLASGVPVRFSGSGSGTSYSLTISRVEAEDAATYYCQQWTSNPPTFGGGAKLEIKR
notes: also called C2B8 monomer; chimeric C2B8
B2: C2B8 (-s-s-) homodimer, disulfide linked IgG/IgG homodimer of C2B8/SH (300 kDa, tetravalent) (antibody, V domains shown)
VH: B1 VH
VL: B1 VL
modifications: engineered cysteine near the carboxyl terminus of the gamma 1 chain (printed as position 444 and as position 445) joins the two IgG molecules by an intermolecular disulfide bond
notes: also called C2B8 (disulfide linked) homodimer; C2B8 homodimer

Legend:
CD20 antigen [1] = molecular target: T1, CD20 antigen (human, UniProt P11836 1-297); test: competitive binding on SKW cells against murine 2B8, flow cytometry with FITC anti-human IgG (by the method, 2B8 was serially diluted and C2B8 fixed at 1 µg/ml)
T1 construct: whole, on cells; Carried by the cell lines SKW and SB (CD20+/CD23+) and DHL-4 (CD20+/CD23-); also called human CD20
T1 sequence (looked up): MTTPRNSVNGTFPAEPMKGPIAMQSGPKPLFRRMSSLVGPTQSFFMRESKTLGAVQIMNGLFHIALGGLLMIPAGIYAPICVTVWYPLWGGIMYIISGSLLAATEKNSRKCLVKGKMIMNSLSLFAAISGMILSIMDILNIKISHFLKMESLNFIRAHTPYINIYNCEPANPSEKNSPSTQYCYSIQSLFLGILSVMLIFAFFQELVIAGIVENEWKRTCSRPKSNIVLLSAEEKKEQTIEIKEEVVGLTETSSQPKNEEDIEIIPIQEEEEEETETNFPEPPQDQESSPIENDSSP
Method: (§1) Binding of monomer and dimerized antibody to various cells was evaluated by indirect immunostaining using FITC anti-human IgG and analyzed using flow cytometry (indirect IF). Cells (2×10^6 viable cells in 0.1 ml cmfPB S/2% Fetal Calf Serum/0.1% Sodium Azide, PBS/FCS buffer) were incubated for one hour on ice with 0.1 ml of 5 fold serially diluted antibody. Cells were twice washed by centrifugation (200×g) using 2 ml PBS/wash and suspended in 0.2 ml FITC conjugated Goat (Fab')_2 anti-human IgG (Jackson Immunoresearch #30869, 5 µg/ml in PBSIFCS buffer). After 30-min. incubation on ice, cells were again washed in PBS and suspended in 0.2 ml 0.5% freshly diluted formaldehyde, capped and stored at 4° C. until analysis. The amount of cell bound antibody was determined by flow cytometry (FACScan, Becton-Dickenson, Mountain View, Calif.).
(§2) The binding affinity of the C2B8 homodimer and monomer for the CD20 antigen was compared using a competitive binding assay (FIG. 10). SKW cells were first incubated for 30 minutes on ice with various amounts of 5-fold serially diluted murine (anti-CD20) MAb 2B8, and by 0.1 ml (at 1 µg/ml) of either C2B8 monomer or homodimer. Indirect IF, as described for FIG. 9, evaluated the amount of C2B8 binding. […]

CD20 antigen [2] = molecular target: T1, CD20 antigen; test: competitive binding on SKW cells against murine 2B8, flow cytometry with FITC anti-human IgG (by the method, 2B8 was serially diluted and homodimer fixed at 1 µg/ml)
Method: as §1, §2

Binder | IC50 (CD20 antigen [1]) | IC50 (CD20 antigen [2])
B1 | 9.8 µg/mL | 
B2 |  | 10.4 µg/mL
